From article PMC6007307
Values joined by “and” are separate entries in the source; they are usually repeats but may differ in a detail not shown here. Identical values can stand only once.

Experiments:
[1] = tested on: IFIT1 (human); assay: primer extension inhibition (toeprinting); conditions: 5' cap0 (m7GpppN, no 2'-O-methylation; ScriptCap); Toeprinting at equilibrium, [IFIT1] >= 10x [mRNA]; binding buffer, salt, pH and temperature not in the material (complexes assembled in 20 mM Tris pH 7.5 …)
[2] = tested on: IFIT1;IFIT2;IFIT3 (human;human;human); assay: primer extension inhibition (toeprinting); conditions: 5' cap0 (m7GpppN, no 2'-O-methylation; ScriptCap); Toeprinting at equilibrium, [IFIT1] >= 10x [mRNA]; binding buffer, salt, pH and temperature not in the material (complexes assembled in 20 mM Tris pH 7.5 …)
[3] = tested on: IFIT1;IFIT3 (human;human); assay: primer extension inhibition (toeprinting); conditions: 5' cap0 (m7GpppN, no 2'-O-methylation; ScriptCap); Toeprinting at equilibrium, [IFIT1] >= 10x [mRNA]; binding buffer, salt, pH and temperature not in the material (complexes assembled in 20 mM Tris pH 7.5 …)
[4] = molecular target: IFIT2 (recombinant) (human) (UniProt P09913); assay: SEC-MALS; equal amounts of IFIT2 and IFIT3 mixed and incubated at 4°C for 1 h, SEC buffer
[5] = molecular target: IFIT2 (recombinant) (human) (UniProt P09913); assay: SEC-MALS; each protein alone at varying concentrations; Superdex 200 Increase 10/300, room temperature, 20 mM Tris pH 7.5, 150 mM KCl, 1 mM DTT

Sequence of IFIT2 (recombinant) (P09913 whole entry): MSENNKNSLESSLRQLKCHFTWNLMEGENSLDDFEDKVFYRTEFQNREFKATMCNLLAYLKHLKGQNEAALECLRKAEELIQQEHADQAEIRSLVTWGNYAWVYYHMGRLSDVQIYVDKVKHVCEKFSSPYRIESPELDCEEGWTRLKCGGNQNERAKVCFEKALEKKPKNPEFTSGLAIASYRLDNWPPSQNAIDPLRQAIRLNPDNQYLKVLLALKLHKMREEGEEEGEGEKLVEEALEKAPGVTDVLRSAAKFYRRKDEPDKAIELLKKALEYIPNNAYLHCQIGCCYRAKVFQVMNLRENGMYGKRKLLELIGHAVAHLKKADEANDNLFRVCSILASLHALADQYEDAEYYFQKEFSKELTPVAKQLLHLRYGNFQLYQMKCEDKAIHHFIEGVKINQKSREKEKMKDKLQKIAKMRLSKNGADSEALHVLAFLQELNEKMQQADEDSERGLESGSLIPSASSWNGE

Row | Substance | K half [1] [nM] | K half [2] [nM] | K half [3] [nM] | stoichiometry N [4] | stoichiometry N [5]
1 | cap0-β-globin Fluc mRNA | 40 | 19 | 19 | – | –
2 | IFIT2 (recombinant) (from UniProt P09913 1-472) (natural protein) | – | – | – | 2 | 2 and 4
